In patent US20210171647A1 (WUXI BIOLOGICS SHANGHAI, published 2021):
Changes are numbered by the printed parent chain.

Key:
[1] = biological target: T1, human OX40, full-length, on cells (human, UniProt P43489 29-277); test: FACS, transfected 293F cells, antibody 1 ug/mL
T1 construct: whole, on cells; also called hPro1; cell surface human OX40
T1 sequence (looked up): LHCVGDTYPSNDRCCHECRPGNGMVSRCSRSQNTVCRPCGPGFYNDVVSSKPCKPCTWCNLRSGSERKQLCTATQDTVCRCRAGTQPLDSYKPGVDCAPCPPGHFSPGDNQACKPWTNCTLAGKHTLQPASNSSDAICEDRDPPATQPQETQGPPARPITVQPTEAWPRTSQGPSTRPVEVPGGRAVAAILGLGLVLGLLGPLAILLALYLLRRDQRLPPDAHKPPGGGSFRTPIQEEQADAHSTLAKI
Protocol: (§1) Binding of antibodies to chimeric OX40 variants was analyzed by flow cytometry. […] Cells were analyzed using flow cytometer.

[2] = biological target: T2, mouse OX40 (mPro1) on transfected 293F cells (mouse, UniProt P47741 20-272); test: FACS, transfected 293F cells, antibody 1 ug/mL
T2 construct: whole, on cells
T2 sequence (looked up): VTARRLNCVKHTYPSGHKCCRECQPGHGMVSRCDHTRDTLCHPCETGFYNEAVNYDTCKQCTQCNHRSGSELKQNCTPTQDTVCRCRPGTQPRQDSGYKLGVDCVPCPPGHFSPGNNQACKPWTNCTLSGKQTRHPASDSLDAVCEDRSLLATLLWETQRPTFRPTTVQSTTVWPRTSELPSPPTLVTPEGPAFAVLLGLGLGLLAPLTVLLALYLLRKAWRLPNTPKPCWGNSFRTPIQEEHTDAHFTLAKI
Protocol: as §1

[3] = biological target: T1, human OX40, full-length, on cells; test: flow cytometry on human OX40 transfected CHO-K1 cells
Protocol: (§2) CHO-K 1 cells expressing human OX40 were transferred in to 96-well U-bottom plates (Corning) at a density of 5×10⁴ cells/mL. Testing antibodies were 1:2 serially diluted in wash buffer (1×PBS/1% BSA) and incubated with cells at 4° C. for 1 h. The secondary antibody goat anti-human IgG Fc FITC (3.2 moles FITC per mole IgG, Jackson Immunoresearch Lab) was added and incubated with cells at 4° C. in the dark for half an hour. The cells were then washed once, resuspended in 1×PBS/1% BSA and analyzed by flow cytometry (BD). Fluorescence intensity was converted to bound molecules/cell based on the quantitative beads Quantum™ MESF Kits (Bangs Laboratories, Inc.). The KD value of each antibody was calculated using Graphpad Prism5.

[4] = biological target: T3, human OX40 extracellular domain (ECD) protein (human, UniProt P43489 29-214); test: SPR, Biacore T200, antibody captured, OX40 as analyte
T3 construct: extracellular domain; also called human OX40 ECD; human OX40 protein; not shown: human Fc or His tag
T3 sequence (looked up): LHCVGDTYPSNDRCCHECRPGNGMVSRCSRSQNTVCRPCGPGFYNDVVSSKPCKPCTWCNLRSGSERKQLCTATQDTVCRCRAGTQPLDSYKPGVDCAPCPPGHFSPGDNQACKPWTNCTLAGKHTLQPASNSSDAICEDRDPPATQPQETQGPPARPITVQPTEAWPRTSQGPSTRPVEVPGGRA

[5] = biological target: T3, human OX40 extracellular domain (ECD) …; test: competition ELISA: human OX40 ECD coated, antibody titrated in a mix with a constant concentration of OX40L, bound OX40L detected at OD450
Protocol: Briefly, plates (Nunc) were coated with human OX40 ECD at 1 μg/mL overnight at 4° C. […] After washing, TMB substrate was added and the interaction was stopped by 2M HCl.

[6] = biological target: T1, human OX40, full-length, on cells; test: flow cytometry, CHO-K1 cells expressing human OX40, MESF beads
Protocol: as §2

human OX40-ECD.His Y72A = biological target: T4, human OX40-ECD.His Y72A (human, UniProt P43489 29-214); test: ELISA, antibody coated, OX40-ECD.His mutant supernatant; relative to silent alanine substitutions;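 further: captured OX40 mutant protein detected with HRP-labelled anti-His antibody, absorbance read-out, scaled to the mean signal of control mutants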
T4 construct: extracellular domain; not shown: C-terminal His-tag
T4 sequence (looked up): T3 sequence (looked up) with Y44A

human OX40-ECD.His A158G = biological target: T5, human OX40-ECD.His A158G (human, UniProt P43489 29-214); test: as above
T5 construct: extracellular domain; not shown: C-terminal His-tag
T5 sequence (looked up): T3 sequence (looked up) with A130G

B1: 1.134.9-u1-IgG1L (antibody, V domains shown)
VH: QVQLQESGPGLVKPSGTLSLTCAVSGGSISSYNWWSWVRQPPGKGLEWIGEIYHGGNTNYNPSLKSRVTMSVDNSKNQFSLKLSSVTAADTAVYYCARAPGDWGGSPYFDFWGQGTLVTVSS
VL: SSELTQDPAVSVALGQTVRITCQGDNLRTYYASWYQQKPGQAPILLIYGRNKRPSGIPDRFSGSSSGNTASLTITGAQAEDEAAYYCNSRDSSGNPVVFGGGTKLTVL
notes: fully human IgG1, lambda
In the case of B1, the MFI [1] is reported as 9160, the “PE + %” value [1] is reported as 85.2% and the MFI [2] is reported as 44.4. For the same binder, the “PE + %” value [2] was 0.937%, the “EC50 (read off the curve)” value [3] was roughly 1000 pM and the Kd [4] was 179 pM. For the same binder, the koff [4] was 3.7e-05 s⁻¹, the kon [4] was 207000 M⁻¹ s⁻¹ and the “IC50 (read off the curve)” value [5] was roughly 1000 pM. For the same binder, the Kd [6] was 530 pM, the “Fold Change” value (human OX40-ECD.His Y72A) was 0.384 and the “Fold Change” value (human OX40-ECD.His A158G) was 1.01.
